4 molecules from patent US20260167721A1 (ABLEXIS, published 2026) can be followed below.

Assay [1] concerns the target T1, human CD3 (TCR/CD3 complex on the cell surface) (human, UniProt P07766 23-207; P04234 22-171; P09693 23-182).
T1 construct: whole, on cells; Native CD3 on human Pan-T cells or Jurkat wild-type cells; also called CD3 on Pan-T cells; CD3 on Jurkat WT cells
The assay can be described thus: flow cytometry, Jurkat WT gMFI over Jurkat KO gMFI, 10 ug/mL. (In general: In flow cytometry, cells or beads pass a laser one at a time.)

Assay [2] deals with T1, human CD3 (TCR/CD3 complex on the cell …). The experiment in a line: flow cytometry, Jurkat WT gMFI over Jurkat KO gMFI, 1 ug/mL.
For assay [3] the target is unchanged. The assay can be described thus: flow cytometry, Pan-T cells, 10 ug/mL.
For assay [4] the target is unchanged. The experiment in a line: flow cytometry, Jurkat WT cells, 10 ug/mL.
For assay [5] the target is unchanged. The experiment in a line: flow cytometry, Jurkat WT cells, 1 ug/mL.
For assay [6] the target is unchanged. The assay can be described thus: flow cytometry, Pan-T cells, 1 ug/mL.

T1 sequence (P07766 23-207, chain 1 of 3): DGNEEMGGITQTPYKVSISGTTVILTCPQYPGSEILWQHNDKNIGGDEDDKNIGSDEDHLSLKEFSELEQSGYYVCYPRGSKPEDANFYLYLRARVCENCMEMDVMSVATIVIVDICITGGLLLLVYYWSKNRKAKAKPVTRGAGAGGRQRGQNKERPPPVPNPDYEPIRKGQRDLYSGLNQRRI
T1 sequence (P04234 22-171, chain 2 of 3): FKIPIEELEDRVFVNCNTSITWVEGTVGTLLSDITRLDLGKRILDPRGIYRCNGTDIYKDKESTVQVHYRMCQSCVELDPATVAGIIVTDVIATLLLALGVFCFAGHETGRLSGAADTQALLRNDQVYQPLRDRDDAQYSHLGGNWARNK
T1 sequence (P09693 23-182, chain 3 of 3): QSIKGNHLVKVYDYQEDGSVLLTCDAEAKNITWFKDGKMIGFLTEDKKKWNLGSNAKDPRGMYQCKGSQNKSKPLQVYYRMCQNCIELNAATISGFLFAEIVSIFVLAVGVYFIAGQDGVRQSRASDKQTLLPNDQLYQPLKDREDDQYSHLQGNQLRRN

B1: CD3 × CD33-BspAb98 (bispecific antibody)
scFv-Fc: NFMLTQPHSVSESPGKTVTISCTRSSGSIASNYVQWYQQRPGSSPTTVIYEDNQRPSGVPDRFSGSIDSSSNSASLTISGLKTEDEADYYCQSYDSSNRVFGCGTKLTVLGGGGSGGGGSGGGGSGGGGSEVHLVESGGGLVKPGGSLRLSCAASGFTFSRYSMNWVRQAPGKCLEWVSSISRSSSYIYYADSVKGRFTISRDNAKNSLYLQMNSLRAEDTAVYYCAREPRTLGMDYWGQGILVTVSSGGGGSDKTHTCPPCPAPEFEGGPSVFLFPPKPKDTLMISRTPEVTCVVVDVSHEDPEVKFNWYVDGVEVHNAKTKPREEQYNSTYRVVSVLTVLHQDWLNGKEYKCKVSNKALPASIEKTISKAKGQPREPQVYTLPPCREEMTKNQVSLWCLVKGFYPSDIAVEWESNGQPENNYKTTPPVLDSDGSFFLYSKLTVDKSRWQQGNVFSCSVMHEALHNHYTQKSLSLSPGK
heavy: EVQLVQSGAEVKKPGSSVKVSCKASGYTITDSNIHWVRQAPGQSLEWIGYIYPYNGGTDYNQKFKNRATLTVDNPTNTAYMELSSLRSEDTAFYYCVNGNPWLAYWGQGTLVTVSSASTKGPSVFPLAPSSKSTSGGTAALGCLVKDYFPEPVTVSWNSGALTSGVHTFPAVLQSSGLYSLSSVVTVPSSSLGTQTYICNVNHKPSNTKVDKRVEPKSCDKTHTCPPCPAPEFEGGPSVFLFPPKPKDTLMISRTPEVTCVVVDVSHEDPEVKFNWYVDGVEVHNAKTKPREEQYNSTYRVVSVLTVLHQDWLNGKEYKCKVSNKALPASIEKTISKAKGQPREPQVCTLPPSREEMTKNQVSLSCAVKGFYPSDIAVEWESNGQPENNYKTTPPVLDSDGSFFLVSKLTVDKSRWQQGNVFSCSVMHEALHNRFTQKSLSLSPGK
light: DIQLTQSPSTLSASVGDRVTITCRASESLDNYGIRFLTWFQQKPGKAPKLLMYAASNQGSGVPSRFSGSGSGTEFTLTISSLQPDDFATYYCQQTKEVPWSFGQGTKVEVKRTVAAPSVFIFPPSDEQLKSGTASVVCLLNNFYPREAKVQWKVDNALQSGNSQESVTEQDSKDSTYSLSSTLTLSKADYEKHKVYACEVTHQGLSSPVTKSFNRGEC
notes: KiH heterodimer
B1: the entries for the “Jurkat WT/KO (Fold)” value in assay [1] and in assay [2] were 12.7 fold and 11.2 fold, respectively. The “% Positive” value in assay [3] is 99.6%; in assay [6], 99.8%. Besides, the gMFI is 278000 gMFI in assay [3], 47700 gMFI in assay [4], 43500 gMFI in assay [5] and 197000 gMFI in assay [6].

B2: CD3 × CD33-BspAb99 (bispecific antibody)
scFv-Fc: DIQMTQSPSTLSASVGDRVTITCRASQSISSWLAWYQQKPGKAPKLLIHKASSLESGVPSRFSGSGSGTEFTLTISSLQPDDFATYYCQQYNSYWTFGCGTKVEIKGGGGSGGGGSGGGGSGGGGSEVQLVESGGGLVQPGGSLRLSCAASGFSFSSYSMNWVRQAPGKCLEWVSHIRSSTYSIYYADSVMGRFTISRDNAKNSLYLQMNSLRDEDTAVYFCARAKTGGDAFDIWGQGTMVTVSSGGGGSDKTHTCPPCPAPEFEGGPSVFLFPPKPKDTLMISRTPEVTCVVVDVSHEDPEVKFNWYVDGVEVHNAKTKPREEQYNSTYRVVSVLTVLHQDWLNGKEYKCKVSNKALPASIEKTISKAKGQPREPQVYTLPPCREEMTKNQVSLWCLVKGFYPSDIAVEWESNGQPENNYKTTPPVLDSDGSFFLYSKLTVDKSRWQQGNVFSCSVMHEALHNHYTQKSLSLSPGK
heavy: EVQLVQSGAEVKKPGSSVKVSCKASGYTITDSNIHWVRQAPGQSLEWIGYIYPYNGGTDYNQKFKNRATLTVDNPTNTAYMELSSLRSEDTAFYYCVNGNPWLAYWGQGTLVTVSSASTKGPSVFPLAPSSKSTSGGTAALGCLVKDYFPEPVTVSWNSGALTSGVHTFPAVLQSSGLYSLSSVVTVPSSSLGTQTYICNVNHKPSNTKVDKRVEPKSCDKTHTCPPCPAPEFEGGPSVFLFPPKPKDTLMISRTPEVTCVVVDVSHEDPEVKFNWYVDGVEVHNAKTKPREEQYNSTYRVVSVLTVLHQDWLNGKEYKCKVSNKALPASIEKTISKAKGQPREPQVCTLPPSREEMTKNQVSLSCAVKGFYPSDIAVEWESNGQPENNYKTTPPVLDSDGSFFLVSKLTVDKSRWQQGNVFSCSVMHEALHNRFTQKSLSLSPGK
light: DIQLTQSPSTLSASVGDRVTITCRASESLDNYGIRFLTWFQQKPGKAPKLLMYAASNQGSGVPSRFSGSGSGTEFTLTISSLQPDDFATYYCQQTKEVPWSFGQGTKVEVKRTVAAPSVFIFPPSDEQLKSGTASVVCLLNNFYPREAKVQWKVDNALQSGNSQESVTEQDSKDSTYSLSSTLTLSKADYEKHKVYACEVTHQGLSSPVTKSFNRGEC
notes: KiH heterodimer
As to B2, the “Jurkat WT/KO (Fold)” value is 1 fold in assay [1] and 0.9 fold in assay [2]. Further, the “% Positive” value in assay [3] turned out to be 1.5%; in assay [6], 1.2%. The gMFI is 1830 gMFI in assay [3], 1670 gMFI in assay [4], 1660 gMFI in assay [5] and 1810 gMFI in assay [6].

B3: CD3 × CD33-BspAb101 (bispecific antibody)
scFv-Fc: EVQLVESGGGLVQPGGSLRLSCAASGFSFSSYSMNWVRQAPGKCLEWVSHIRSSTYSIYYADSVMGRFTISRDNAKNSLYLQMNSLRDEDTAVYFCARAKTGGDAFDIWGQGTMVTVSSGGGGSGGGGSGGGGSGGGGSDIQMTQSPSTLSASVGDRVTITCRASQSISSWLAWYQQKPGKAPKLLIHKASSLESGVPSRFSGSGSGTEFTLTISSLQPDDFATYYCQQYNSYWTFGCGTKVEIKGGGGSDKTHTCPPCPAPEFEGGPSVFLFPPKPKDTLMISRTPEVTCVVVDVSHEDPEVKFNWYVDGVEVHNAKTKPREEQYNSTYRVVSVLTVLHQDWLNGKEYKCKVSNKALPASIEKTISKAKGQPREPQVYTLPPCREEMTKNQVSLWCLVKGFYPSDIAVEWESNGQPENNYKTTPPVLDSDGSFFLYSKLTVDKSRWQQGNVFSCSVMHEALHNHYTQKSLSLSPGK
heavy: EVQLVQSGAEVKKPGSSVKVSCKASGYTITDSNIHWVRQAPGQSLEWIGYIYPYNGGTDYNQKFKNRATLTVDNPTNTAYMELSSLRSEDTAFYYCVNGNPWLAYWGQGTLVTVSSASTKGPSVFPLAPSSKSTSGGTAALGCLVKDYFPEPVTVSWNSGALTSGVHTFPAVLQSSGLYSLSSVVTVPSSSLGTQTYICNVNHKPSNTKVDKRVEPKSCDKTHTCPPCPAPEFEGGPSVFLFPPKPKDTLMISRTPEVTCVVVDVSHEDPEVKFNWYVDGVEVHNAKTKPREEQYNSTYRVVSVLTVLHQDWLNGKEYKCKVSNKALPASIEKTISKAKGQPREPQVCTLPPSREEMTKNQVSLSCAVKGFYPSDIAVEWESNGQPENNYKTTPPVLDSDGSFFLVSKLTVDKSRWQQGNVFSCSVMHEALHNRFTQKSLSLSPGK
light: DIQLTQSPSTLSASVGDRVTITCRASESLDNYGIRFLTWFQQKPGKAPKLLMYAASNQGSGVPSRFSGSGSGTEFTLTISSLQPDDFATYYCQQTKEVPWSFGQGTKVEVKRTVAAPSVFIFPPSDEQLKSGTASVVCLLNNFYPREAKVQWKVDNALQSGNSQESVTEQDSKDSTYSLSSTLTLSKADYEKHKVYACEVTHQGLSSPVTKSFNRGEC
notes: KiH heterodimer
On to B3, for which the “Jurkat WT/KO (Fold)” value amounted to 0.9 fold in assay [1] and 0.8 fold in assay [2]. Also, the “% Positive” value in assay [3] stood at 1.6%; in assay [6], 1.8%. The gMFI worked out at 2150 gMFI in assay [3], 1940 gMFI in assay [4], 1780 gMFI in assay [5] and 1910 gMFI in assay [6].

B4: CD3 × CD33-BspAb100 (bispecific antibody)
scFv-Fc: EVQLVESGGGLVKPGGSLRLSCAASGFTFSNYYMNWVRQAPGKCLERVSSISSSSNYIYYADSVKGRFTISRDNAKNSLYLQMNSLRAEDTAVYYCARDRRELPLDYWGQGTVVTVSSGGGGSGGGGSGGGGSGGGGSSYELTQPPSVSVSPGQTARITCSGDALPKKYAYWYQQKSGQAPVLVIYEDSKRPSGIPERFSGSSSGTMATLTISGAQVEDEADYYCYSTDSSGNHWVFGCGTKLTVLGGGGSDKTHTCPPCPAPEFEGGPSVFLFPPKPKDTLMISRTPEVTCVVVDVSHEDPEVKFNWYVDGVEVHNAKTKPREEQYNSTYRVVSVLTVLHQDWLNGKEYKCKVSNKALPASIEKTISKAKGQPREPQVYTLPPCREEMTKNQVSLWCLVKGFYPSDIAVEWESNGQPENNYKTTPPVLDSDGSFFLYSKLTVDKSRWQQGNVFSCSVMHEALHNHYTQKSLSLSPGK
heavy: EVQLVQSGAEVKKPGSSVKVSCKASGYTITDSNIHWVRQAPGQSLEWIGYIYPYNGGTDYNQKFKNRATLTVDNPTNTAYMELSSLRSEDTAFYYCVNGNPWLAYWGQGTLVTVSSASTKGPSVFPLAPSSKSTSGGTAALGCLVKDYFPEPVTVSWNSGALTSGVHTFPAVLQSSGLYSLSSVVTVPSSSLGTQTYICNVNHKPSNTKVDKRVEPKSCDKTHTCPPCPAPEFEGGPSVFLFPPKPKDTLMISRTPEVTCVVVDVSHEDPEVKFNWYVDGVEVHNAKTKPREEQYNSTYRVVSVLTVLHQDWLNGKEYKCKVSNKALPASIEKTISKAKGQPREPQVCTLPPSREEMTKNQVSLSCAVKGFYPSDIAVEWESNGQPENNYKTTPPVLDSDGSFFLVSKLTVDKSRWQQGNVFSCSVMHEALHNRFTQKSLSLSPGK
light: DIQLTQSPSTLSASVGDRVTITCRASESLDNYGIRFLTWFQQKPGKAPKLLMYAASNQGSGVPSRFSGSGSGTEFTLTISSLQPDDFATYYCQQTKEVPWSFGQGTKVEVKRTVAAPSVFIFPPSDEQLKSGTASVVCLLNNFYPREAKVQWKVDNALQSGNSQESVTEQDSKDSTYSLSSTLTLSKADYEKHKVYACEVTHQGLSSPVTKSFNRGEC
notes: KiH heterodimer
In the case of B4, the “Jurkat WT/KO (Fold)” value in assay [1] is 11.9 fold; in assay [2], 9.3 fold. Also, the “% Positive” value in assay [3] and in assay [6] was 99.5% throughout. In addition, the gMFI came to 348000 gMFI in assay [3], 39600 gMFI in assay [4], 30000 gMFI in assay [5] and 240000 gMFI in assay [6].
